Results reported in publication PMC1919486.

Molecular target: T1, hSMUG1 WT (Homo sapiens, UniProt Q53HV7 1-270)
T1 sequence: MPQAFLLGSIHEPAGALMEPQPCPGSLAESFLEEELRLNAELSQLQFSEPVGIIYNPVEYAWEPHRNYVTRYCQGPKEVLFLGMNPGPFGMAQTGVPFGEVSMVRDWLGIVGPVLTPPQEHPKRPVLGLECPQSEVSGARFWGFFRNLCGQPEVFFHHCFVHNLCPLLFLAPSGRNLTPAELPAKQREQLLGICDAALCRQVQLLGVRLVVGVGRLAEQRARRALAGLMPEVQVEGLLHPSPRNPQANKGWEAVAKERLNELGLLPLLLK
Experiment: EMSA

B1: T:A (T141A) (dsDNA)
DNA 1: CATAAAGTGTAAAGCCTGG
DNA 2: CCAGGCTTTACACTTTATG
binding result: no binding
